Substrate in data set [1]: CCCCCCCCCCCCC/C=C/[C@@H](O)[C@H](CO)NC(=O)CCCCCCCCCCCCCCCCC
Briefly: LC-MS quantification of sphingosine, Michaelis-Menten fit. Conditions: 0.3 μM enzyme, 25 mM Tris pH 8.0, 150 mM NaCl, 0.02% DDM, 0.002% CHS micelles, room temperature, 30 min. In kind it is biochemical, Homo sapiens.

Data set [2] deals with the molecule itself. As to the kind of experiment: cryo-EM structure; purified SIDT2 in GDN micelles; three samples: pH 7.4 (HEPES, 150 mM NaCl), pH 5.5 (MES) and pH 5.5 plus miRNA2911 (RNA:protein 5:1); refinement with C2 symmetry; no conformational change between the three.

This is an account of results in article PMC10272179, “Structural insight into the human SID1 transmembrane family member 2 reveals its lipid hydrolytic activity” (Nature Communications, 2023).

B1: human SIDT2 (SID1 transmembrane family member 2) (Homo sapiens) (protein)
chain: HLGVLGPKNVSQKDAEFERTYVDEVNSELVNIYTFNHTVTRNRTEGVRVSVNVLNKQKGAPLLFVVRQKEAVVSFQVPLILRGMFQRKYLYQKVERTLCQPPTKNESEIQFFYVDVSTLSPVNTTYQLRVSRMDDFVLRTGEQFSFNTTAAQPQYFKYEFPEGVDSVIVKVTSNKAFPCSVISIQDVLCPVYDLDNNVAFIGMYQTMTKKAAITVQRKDFPSNSFYVVVVVKTEDQACGGSLPFYPFAEDEPVDQGHRQKTLSVLVSQAVTSEAYVSGMLFCLGIFLSFYLLTVLLACWENWRQKKKTLLVAIDRACPESGHPRVLADSFPGSSPYEGYNYGSFENVSGSTDGLVDSAGTGDLSYGYQGRSFEPVGTRPRVDSMSSVEEDDYDTLTDIDSDKNVIRTKQYLYVADLARKDKRVLRKKYQIYFWNIATIAVFYALPVVQLVITYQTVVNVTGNQDICYYNFLCAHPLGNLSAFNNILSNLGYILLGLLFLLIILQREINHNRALLRNDLCALECGIPKHFGLFYAMGTALMMEGLLSACYHVCPNYTNFQFDTSFMYMIAGLCMLKLYQKRHPDINASAYSAYACLAIVIFFSVLGVVFGKGNTAFWIVFSIIHIIATLLLSTQLYYMGRWKLDSGIFRRILHVLYTDCIRQCSGPLYVDRMVLLVMGNVINWSLAAYGLIMRPNDFASYLLAIGICNLLLYFAFYIIMKLRSGERIKLIPLLCIVCTSVVWGFALFFFFQGLSTWQKTPAESREHNRDCILLDFFDDHDIWHFLSSIAMFGSFLVLLTLDDDLDTVQRDKIYVF
notes: full-length (832 residues, with signal peptide), C-terminal FLAG and His8 tags, expressed in HEK293F, purified in GDN; homodimer
Regarding B1, in data set [1], the Km – broadly, the substrate concentration at which the rate is half of its maximum – is 9.0 µM and the kcat (as a rule, the maximal rate divided by the concentration of active sites) worked out at 0.00012 s⁻¹.

B2: human SID1 transmembrane family member 2 (SIDT2), full-length (natural protein, UniProt Q8NBJ9 19-832, looked up)
chain: HLGVLGPKNVSQKDAEFERTYVDEVNSELVNIYTFNHTVTRNRTEGVRVSVNVLNKQKGAPLLFVVRQKEAVVSFQVPLILRGMFQRKYLYQKVERTLCQPPTKNESEIQFFYVDVSTLSPVNTTYQLRVSRMDDFVLRTGEQFSFNTTAAQPQYFKYEFPEGVDSVIVKVTSNKAFPCSVISIQDVLCPVYDLDNNVAFIGMYQTMTKKAAITVQRKDFPSNSFYVVVVVKTEDQACGGSLPFYPFAEDEPVDQGHRQKTLSVLVSQAVTSEAYVSGMLFCLGIFLSFYLLTVLLACWENWRQKKKTLLVAIDRACPESGHPRVLADSFPGSSPYEGYNYGSFENVSGSTDGLVDSAGTGDLSYGYQGRSFEPVGTRPRVDSMSSVEEDDYDTLTDIDSDKNVIRTKQYLYVADLARKDKRVLRKKYQIYFWNIATIAVFYALPVVQLVITYQTVVNVTGNQDICYYNFLCAHPLGNLSAFNNILSNLGYILLGLLFLLIILQREINHNRALLRNDLCALECGIPKHFGLFYAMGTALMMEGLLSACYHVCPNYTNFQFDTSFMYMIAGLCMLKLYQKRHPDINASAYSAYACLAIVIFFSVLGVVFGKGNTAFWIVFSIIHIIATLLLSTQLYYMGRWKLDSGIFRRILHVLYTDCIRQCSGPLYVDRMVLLVMGNVINWSLAAYGLIMRPNDFASYLLAIGICNLLLYFAFYIIMKLRSGERIKLIPLLCIVCTSVVWGFALFFFFQGLSTWQKTPAESREHNRDCILLDFFDDHDIWHFLSSIAMFGSFLVLLTLDDDLDTVQRDKIYVF
modifications: N-linked glycans resolved at N27, N54, N60, N123, N141 and N165
notes: SIDT2, human, full-length cDNA; 832-amino acid protein with a signal peptide, BRD1 (23-152), BRD2 (157-287), CTD between TM1 and TM2, and eleven TMs; Expressed from the full-length cDNA with its own signal peptide; also called apoSIDT2-pH 7.4; apoSIDT2-pH 5.5
As to B2, the stoichiometry N – broadly, a count of units in the complex or per binding partner – in data set [2] was found to be 2.
